# Reference: patent WO2008044032A2 (dated 2008)
# T1: CD20 on the CD20+ human Daudi Burkitt lymphoma cell line (human, UniProt P11836 1-297)
# T1 construct: whole, on cells; also called Daudi cells
# T1 sequence (looked up): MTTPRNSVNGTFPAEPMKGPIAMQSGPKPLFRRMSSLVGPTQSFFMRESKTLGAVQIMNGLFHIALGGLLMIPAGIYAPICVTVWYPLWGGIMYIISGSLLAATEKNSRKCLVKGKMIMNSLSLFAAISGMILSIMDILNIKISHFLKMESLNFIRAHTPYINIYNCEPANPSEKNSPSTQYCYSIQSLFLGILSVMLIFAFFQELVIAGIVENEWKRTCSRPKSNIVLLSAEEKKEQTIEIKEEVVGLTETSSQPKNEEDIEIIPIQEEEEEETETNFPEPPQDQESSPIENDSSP
# B1: chimeric anti-CD20 antibody (unmodified chimeric Leu 16) (antibody, human IgG1, V domains shown)
# VH: EVQLQQSGAELVKPGASVKMSCKASGYTFTSYNMHWVKQTPGQGLEWIGAIYPGNGDTSYNQKFKGKATLTADKSSSTAYMQLSSLTSEDSADYYCARSNYYGSSYWFFDVWGAGTTVTVSS
# VL: DIVLTQSPAILSASPGEKVTMTCRASSSVNYMDWYQKKPGSSPKPWIYATSNLASGVPARFSGSGSGTSYSLTISRVEAEDAATYYCQQWSFNPPTFGGGTKLEIK
# notes: Only the variable regions are printed
# Target: T1, CD20 on the CD20+ human Daudi Burkitt …
# Assay: FACS binding assay on CD20+ Daudi cells, serial dilutions of antibody
binder,measurement,value
B1,binding result,binds
